Assay results: paper PMC9536601 (2022)

T1: Ad1 hexon, on wild-type human adenovirus type 1 virions (human adenovirus type 1)
T1 chain: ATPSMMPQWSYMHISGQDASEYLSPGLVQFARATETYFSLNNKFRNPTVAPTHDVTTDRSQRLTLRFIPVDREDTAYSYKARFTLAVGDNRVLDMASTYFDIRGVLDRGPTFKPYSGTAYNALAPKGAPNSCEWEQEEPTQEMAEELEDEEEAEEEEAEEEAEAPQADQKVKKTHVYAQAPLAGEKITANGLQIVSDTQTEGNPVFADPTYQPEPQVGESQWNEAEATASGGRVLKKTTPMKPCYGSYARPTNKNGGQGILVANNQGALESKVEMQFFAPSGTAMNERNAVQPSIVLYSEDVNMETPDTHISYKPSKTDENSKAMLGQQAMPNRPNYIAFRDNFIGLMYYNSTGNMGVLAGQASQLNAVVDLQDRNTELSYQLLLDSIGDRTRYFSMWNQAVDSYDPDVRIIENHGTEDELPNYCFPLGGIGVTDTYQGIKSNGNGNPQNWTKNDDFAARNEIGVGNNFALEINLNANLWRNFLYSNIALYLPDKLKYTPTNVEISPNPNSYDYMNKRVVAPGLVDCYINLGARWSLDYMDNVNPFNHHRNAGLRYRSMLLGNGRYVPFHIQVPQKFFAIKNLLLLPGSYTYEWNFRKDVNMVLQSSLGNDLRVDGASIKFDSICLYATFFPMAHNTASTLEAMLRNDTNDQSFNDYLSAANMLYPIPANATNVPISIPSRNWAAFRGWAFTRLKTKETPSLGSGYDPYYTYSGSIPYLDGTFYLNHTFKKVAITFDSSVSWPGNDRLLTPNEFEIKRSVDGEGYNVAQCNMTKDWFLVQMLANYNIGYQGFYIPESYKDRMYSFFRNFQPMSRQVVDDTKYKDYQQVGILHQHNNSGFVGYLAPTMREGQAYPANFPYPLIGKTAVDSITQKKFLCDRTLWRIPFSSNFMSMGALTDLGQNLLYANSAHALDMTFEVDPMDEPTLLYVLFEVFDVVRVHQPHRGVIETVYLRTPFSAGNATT

T2: Ad5 hexon, on wild-type human adenovirus type 5 virions (human adenovirus type 5, UniProt P04133 2-952)
T2 chain: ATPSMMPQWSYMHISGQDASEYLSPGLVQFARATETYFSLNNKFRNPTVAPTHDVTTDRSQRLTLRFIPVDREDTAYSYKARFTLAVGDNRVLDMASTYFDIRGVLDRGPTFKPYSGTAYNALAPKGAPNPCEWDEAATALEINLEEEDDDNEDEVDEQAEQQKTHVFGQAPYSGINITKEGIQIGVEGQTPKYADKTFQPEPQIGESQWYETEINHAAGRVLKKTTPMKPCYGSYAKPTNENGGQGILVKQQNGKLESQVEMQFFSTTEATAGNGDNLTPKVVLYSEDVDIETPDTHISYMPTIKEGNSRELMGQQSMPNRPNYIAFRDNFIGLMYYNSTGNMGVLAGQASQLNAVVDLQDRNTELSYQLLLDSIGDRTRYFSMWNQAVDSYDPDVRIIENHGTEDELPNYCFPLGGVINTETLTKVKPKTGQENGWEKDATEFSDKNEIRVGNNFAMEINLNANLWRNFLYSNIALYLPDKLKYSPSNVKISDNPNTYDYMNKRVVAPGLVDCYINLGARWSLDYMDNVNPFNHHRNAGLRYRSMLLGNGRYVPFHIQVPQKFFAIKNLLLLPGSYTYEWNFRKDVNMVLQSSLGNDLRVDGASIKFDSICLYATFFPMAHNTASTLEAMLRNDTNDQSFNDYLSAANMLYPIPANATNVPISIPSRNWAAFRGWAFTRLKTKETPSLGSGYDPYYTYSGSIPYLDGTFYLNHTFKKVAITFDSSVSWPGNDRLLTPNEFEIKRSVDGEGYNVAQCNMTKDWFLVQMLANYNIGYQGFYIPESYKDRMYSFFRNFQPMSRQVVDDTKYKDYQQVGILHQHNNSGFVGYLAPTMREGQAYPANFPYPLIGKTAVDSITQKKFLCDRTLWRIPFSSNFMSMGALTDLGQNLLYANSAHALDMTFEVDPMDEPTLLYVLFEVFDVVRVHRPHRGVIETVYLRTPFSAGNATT

T3: Ad2 hexon, on wild-type human adenovirus type 2 virions (human adenovirus type 2, UniProt P03277 1-968)
T3 chain: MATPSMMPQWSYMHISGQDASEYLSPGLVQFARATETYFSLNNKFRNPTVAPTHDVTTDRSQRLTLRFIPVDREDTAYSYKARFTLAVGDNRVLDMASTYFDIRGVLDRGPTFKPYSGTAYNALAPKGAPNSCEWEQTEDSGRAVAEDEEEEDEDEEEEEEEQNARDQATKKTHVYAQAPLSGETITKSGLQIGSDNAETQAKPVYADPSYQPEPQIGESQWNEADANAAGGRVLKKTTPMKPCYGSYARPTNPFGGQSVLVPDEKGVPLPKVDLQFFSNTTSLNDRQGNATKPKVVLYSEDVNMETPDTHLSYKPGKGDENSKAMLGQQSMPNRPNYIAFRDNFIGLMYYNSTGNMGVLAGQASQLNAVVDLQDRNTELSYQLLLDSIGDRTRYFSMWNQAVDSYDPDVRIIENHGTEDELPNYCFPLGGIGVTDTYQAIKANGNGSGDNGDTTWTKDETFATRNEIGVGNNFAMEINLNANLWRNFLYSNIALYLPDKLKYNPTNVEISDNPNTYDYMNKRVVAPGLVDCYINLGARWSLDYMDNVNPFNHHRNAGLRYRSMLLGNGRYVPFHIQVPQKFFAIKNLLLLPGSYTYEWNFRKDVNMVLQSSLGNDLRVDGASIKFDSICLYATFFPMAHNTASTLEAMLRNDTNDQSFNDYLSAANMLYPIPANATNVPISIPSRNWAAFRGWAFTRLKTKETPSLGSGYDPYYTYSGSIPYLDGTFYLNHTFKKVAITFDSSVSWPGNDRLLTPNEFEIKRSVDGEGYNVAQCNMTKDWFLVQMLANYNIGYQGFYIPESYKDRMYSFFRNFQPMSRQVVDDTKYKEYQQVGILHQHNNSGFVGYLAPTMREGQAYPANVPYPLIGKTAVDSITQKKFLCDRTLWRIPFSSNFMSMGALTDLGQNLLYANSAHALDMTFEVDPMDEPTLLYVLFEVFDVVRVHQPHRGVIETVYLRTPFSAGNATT

B1: Ad6 hexon, on wild-type human adenovirus type 6 virions (natural protein)
chain: ATPSMMPQWSYMHISGQDASEYLSPGLVQFARATETYFSLNNKFRNPTVAPTHDVTTDRSQRLTLRFIPVDREDTAYSYKARFTLAVGDNRVLDMASTYFDIRGVLDRGPTFKPYSGTAYNALAPKGAPNSCEWEQNETAQVDAQELDEEENEANEAQAREQEQAKKTHVYAQAPLSGIKITKEGLQIGTADATVAGAGKEIFADKTFQPEPQVGESQWNEADATAAGGRVLKKTTPMKPCYGSYARPTNSNGGQGVMVEQNGKLESQVEMQFFSTSTNATNEVNNIQPTVVLYSEDVNMETPDTHLSYKPKMGDKNAKVMLGQQAMPNRPNYIAFRDNFIGLMYYNSTGNMGVLAGQASQLNAVVDLQDRNTELSYQLLLDSIGDRTRYFSMWNQAVDSYDPDVRIIENHGTEDELPNYCFPLGGIGITDTFQAVKTTAANGDQGNTTWQKDSTFAERNEIGVGNNFAMEINLNANLWRNFLYSNIALYLPDKLKYNPTNVEISDNPNTYDYMNKRVVAPGLVDCYINLGARWSLDYMDNVNPFNHHRNAGLRYRSMLLGNGRYVPFHIQVPQKFFAIKNLLLLPGSYTYEWNFRKDVNMVLQSSLGNDLRVDGASIKFDSICLYATFFPMAHNTASTLEAMLRNDTNDQSFNDYLSAANMLYPIPANATNVPISIPSRNWAAFRGWAFTRLKTKETPSLGSGYDPYYTYSGSIPYLDGTFYLNHTFKKVAITFDSSVSWPGNDRLLTPNEFEIKRSVDGEGYNVAQCNMTKDWFLVQMLANYNIGYQGFYIPESYKDRMYSFFRNFQPMSRQVVDDTKYKDYQQVGIIHQHNNSGFVGYLAPTMREGQAYPANVPYPLIGKTAVDSITQKKFLCDRTLWRIPFSSNFMSMGALTDLGQNLLYANSAHALDMTFEVDPMDEPTLLYVLFEVFDVVRVHQPHRGVIETVYLRTPFSAGNATT

What was measured:
Assay in all cases: SPR
[1] = target: T1, Ad1 hexon, on wild-type human …
human prothrombin (FII) = human prothrombin (FII) (human, UniProt P00734 44-622, gamma-carboxylated glutamate residues in the Gla domain)
[2] = target: B1
[3] = target: T2, Ad5 hexon, on wild-type human …
[4] = target: T3, Ad2 hexon, on wild-type human …

Binder | Kd [1] [nM] | Kd (human prothrombin (FII)) [nM] | Kd [2] [nM] | Kd [3] [nM] | Kd [4] [nM]
bovine prothrombin (FII) (natural protein, gamma-carboxylated glutamate residues in the Gla domain) not shown | 37 | – | – | – | –
B1 | – | 2.7 | – | – | –
human coagulation factor X (natural protein, gamma-carboxylated glutamate residues in the Gla domain) chain 1: ANSFLEEMKKGHLERECMEETCSYEEAREVFEDSDKTNEFWNKYKDGDQCETSPCQNQGKCKDGLGEYTCTCLEGFEGKNCELFTRKLCSLDNGDCDQFCHEEQNSVVCSCARGYTLADNGKACIPTGPYPCGKQTLER chain 2: SVAQATSSSGEAPDSITWKPYDAADLDPTENPFDLLDFNQTQPERGDNNLTRIVGGQECKDGECPWQALLINEENEGFCGGTILSEFYILTAAHCLYQAKRFKVRVGDRNTEQEEGGEAVHEVEVVIKHNRFTKETYDFDIAVLRLKTPITFRMNVAPACLPERDWAESTLMTQKTGIVSGFGRTHEKGRQSTRLKMLEVPYVDRNSCKLSSSFIITQNMFCAGYDTKQEDACQGDSGGPHVTRFKDTYFVTGIVSWGEGCARKGKYGIYTKVTAFLKWIDRSMKTRGLPKAKSHAPEVITSSPLK | 220 | – | 28 | 0.74 | –
bovine coagulation factor X (natural protein, gamma-carboxylated glutamate residues in the Gla domain) chain 1: ANSFLEEVKQGNLERECLEEACSLEEAREVFEDAEQTDEFWSKYKDGDQCEGHPCLNQGHCKDGIGDYTCTCAEGFEGKNCEFSTREICSLDNGGCDQFCREERSEVRCSCAHGYVLGDDSKSCVSTERFPCGKFTQGRS chain 2: WAIHTSEDALDASELEHYDPADLSPTESSLDLLGLNRTEPSAGEDGSQVVRIVGGRDCAEGECPWQALLVNEENEGFCGGTILNEFYVLTAAHCLHQAKRFTVRVGDRNTEQEEGNEMAHEVEMTVKHSRFVKETYDFDIAVLRLKTPIRFRRNVAPACLPEKDWAEATLMTQKTGIVSGFGRTHEKGRLSSTLKMLEVPYVDRSTCKLSSSFTITPNMFCAGYDTQPEDACQGDSGGPHVTRFKDTYFVTGIVSWGEGCARKGKFGVYTKVSNFLKWIDKIMKARAGAAGSRGHSEAPATWTVPPPLPL | 160 | – | 100 | – | 73
mouse prothrombin (FII) (natural protein, gamma-carboxylated glutamate residues in the Gla domain) not shown | 14 | – | – | – | –
